Assay results published in the RNAGym collection of RNA variant scans (doi:10.1073/pnas.2313332121).

B1: TPR t1 (parent)
chain: GACCAAUCUGCCCUCAGAGCUCGAGAACAUCUUCGGAUGCAGAGGAGGCAGGCUUCGGUGGCGCGAUAGCGCCAACGUCCUCAACCUCCAAUGCAUCCCACCACAUGAUGAUGCCUGAAGAGCCUUGGUUUUUUG

Variants of: B1
Test: polymerase ribozyme fitness, log enrichment relative to wild type (log ratio); higher = more active; in vitro selection for triplet polymerase activity
Method in brief: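 In triplicate, a single round of in vitro selection was run on each mutant library, PCR-built and transcribed, covering one subunit of a heterodimeric triplet polymerase ribozyme. Frozen incubation at −7 °C followed annealing with a biotinylated primer, partner subunit and triplets, and extended constructs were then gel-excised, streptavidin-captured and taken through RT-PCR. Fitness is the logarithm of genotype enrichment over wild-type enrichment, from inverse-variance-weighted replicate averages of Illumina-sequenced inputs and outputs. […] only genotypes with ≥10 input reads and ≥1 read per output were kept.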

Variant	polymerase ribozyme fitness (log ratio)
GAUCAAUCUGCCCUCAGAGCUCGAGAACAUCUUCGGAUGCAGAGGAGGCAGGCUUCGGUGGCGCGAUAGCCCCAACAUCCUCAACCUCCAAUGCAUCCCACCACAUGAUGAUGCCUGAAGAGCCUUGGUUUUUUG	-5.92
GAUCAAUCUGCCCUCAGAGCUCGAGAACAUCUUCGGAUGCAGAGGAGCCAGGCUUCGGUGGCGCGAUAGCGCCAACGUCCUGAACCUCCAAUGCAUCCCACCACAUGAUGAUGCCUGAAGAGCCUUGGUUUUUUG	-1.66
GAUCAAUCUGCCCUCAGAGCUCGAGAACAUCUUCGGAUGCAGAGGAGGCAGGCUUCGGUGGCGCGAUAGCGCCAAGGUCCUCAACCUCCAAUGCAUCCCACCACAUGAUGAUGCCUGAAGAGCCUUGGUUUUUUG	-1.27
GAUCAAUCUGCCCUCAGAGCUCGAGAACAUCUUCGGAUGCAGAGGAGGCAGGCUUCGGUGGCGCGAUAGCGCCAACGUCCUCAACCUCCAAUCCAUCCCACCACAUGAUGAAGCCUGAAGAGGCUUGGUUUUUUG	-1.14
GAUCAAUCUGCCCUCAGAGCUCGAGAACAUCUUCGGAUGCAGAGUAGGCAGGCUACGGUAGCGCGAUAGCGCCAACGUCCACAACCUCCAAUGCAUCCCACCACAUGAUGAUGCCUGAAGAGCCUUGGUUUUUUG	-1.52
GAUCAAUCUGCCCACAGAGCUCGAGAACAUCUUCGGAUGCAGAGGAGGCAGGCUUCGGUGGCGCGAUAGCGCCAACGUCCUCAACCUCCAAUGCAUCCCACCACAUGAUGAUGCCUGAAGAGCCUUGGUUUUUUG	-2.47
GAUCAAUCUGCCCUCAGAGCUCGAGAACAUCUUCGGAUGCAGAGGAGGCAGGCUUCUGUGGCGCGAUAGCGCCAACGUCCUCAACCUCCAAUGCAUCCCACCACAUGAUGAUGCCUGAAGAGCCUUGGUUUUUUG	-0.67
GAUCAAUCUGCCCUCAGAGCUCGAGAACAUCUUCGGAUGCAGAGGAGUCAGGCUUCGGUGCCGCUAUAGCACCAACGUCCUCAACCUCCAAUGCAUCCCACCACAUGAUGAUGCCUGAAGAGCCUUGGUUUUUUG	-4.29
GAUCAACCUGCCCUCAGAGCUCGAGAACAUCUUCGGAUGCAGAGGAGUCAGGCUUCGGUGGCGCGAUAGUGCCAACGUCCUCAACCUCCAAUGCAUCCCACCACAUGAUGAUGCCUGAAGAGCCUUGGUUUUUUG	-1.98
GAUCAAUCUGCCCUCAGAGCUCGAGAACAUCUUCGGAUGCAGAGUAGGCAGGCUUCGGUGGCGCGAUAGCGGCAACGUCCUCAACCUCCAAUGCAUCCCACCACAUGAUGAUGCCUGAAGAGCCUUGGUUUUUUG	-2.05
GAUCAAUCUGCCCUCAGAGCUCGAGAACAUCUUCGGAUGCAGAGAAGUCAGGCUUCGGUAGCGCGAUAGCGCCAACGUCCUCAACCUCCAAUGCAUCCCACCACAUGAUGAUGCCUGAAGAGCCUUGGUUUUUUG	-1.92
GAUCAAUCUGCCCUCAGAGCUCGAGAACAUCUUCGGAUGCAGAGGAGGCAGGCUUCGGUGGCGCGAUAGCGCCAACAUCCUCAACCUCCAAUGGAUCCCACCACAUGAUGAUGCCUGAAGAGCCUUGGUUUUUUG	-1.2
GAUCAAUCUGCCCUCAGAGCUCGAGAACAUCUUCGGAUGCAGAGGAAGCAGGCUUCGGUGGUGCGAUAGCGCCAACGUCCUCAACCUCCAAUGCAUCCCACCACUUGAUGAUGCCUGGAGAGCCUUGGUUUUUUG	-3.83
GAUCAAUCUUCCCUCAGAGCUCGAGUACAUCUUCGGAUGCAGAGGAGGCAGGCUCCGGUGGCGCGAUAUCGCCAACGUCCUCAACCUCCAAUGCAUCCCACCACAUGAUGACGCCUGAAGAGCCUUGGUUUUUUG	-3.58
GAUCAAUCUGCCCUCAGAGCUCGAGAACAUCUUCGGAUGCAGAGGAGGCAGGCUUCGGUGGCGCGAUAGCGCCAACUUCCUCAACCUCCAAUGCAUCCCACCACAUGAUGAUGCCUGAACAGCCUUGGUUUUUUG	0.534
GAUCAAUCUGCCCUCAGAACUCGAGAACAUCUUCGGAUGCAGAGGAGGCAGGCUUCGGUGGCGCGAUAGUGCCAACGUCCUCAACCUCCAAUGCAUCCCACCACAUGAUGGUGCCUGAAUAGCCUUGGUUUUUUG	-3.71
GAUCAAUCUGCCCUCAGAGCUCGAGAACAUCUUCGGAUGCAGAGGAAGCAGGCUUCGGUGGCGCGAUAGCGCCAACGUCCUCAACCUCCAAUGCAUCCCACCACAUGAUGAUGCCUGAAGAGCCUUGGUUUUUUG	-0.64
GAUCAAUCUGCCCUCAGAGCUCGAGAACAUCUUCGGAUGCAGAGGAUGCCGGCUUCGGUGGCGCGAUAGCGCCAACGUCCUCAACCUCCAAUGCAUCCCACCACAUGAUGAUGCCUGAAGAGCCUUGGUUUUUUG	-2.21
GAUCAAUCUGCCCUCAGAGCUCGAGAACAUCUUCGGAUGCAGAGGAGGCAGGCUUCGGUGGCGCGAUAGCGGCAACGUCCUCAACCUCCUAUGCAUCCCACCACAAGAUGAUGCCUGAAGAGCCUUGGUUUUUUG	-1.94
GAUCAAUCGGCCCUCAGAGCUCGAGAACAUCUUCGGAUGCAGAGAAGGCAUGGUUCGGUGGCGCGAUAGCGCCAACGUCCUCAACCUCCAAUGCAUCCCACCACAUGAUGAUGCCUGAAGAGACUUGGUUUUUUG	-5.27
GAUCAAUCUGCCCUCAGAGCUCGAGAACAUCUUCGGAUGCAGAGGAGGCAGGCUUCGGUGGCGCGAUAGCGCCAACGUCCUCAACCUCCAAUGCAUCCCACCACAUGAUGAUUCCUGAAGAGCCUUGGUUUUUUG	-2.47

Variant	polymerase ribozyme fitness (log ratio)
GAUCAAUCUGCCCUCAGAGCUCGAGAACAUCUUCGGAUGCAGAGCAGGCAGGCUUCGGUGGCGCGAUAGCGCCAACGUCCUCAACCUCCAAUGCAUCCCACCACAUGAUGAUGCCUGAAGAGCCUUGGUUUUUUG	-2.34
GAUCAAUCUGCCCUCAGAACUCGAGAACAUCUUCGGAUGCAGAGGAGGCAGGGUUCGGUGGCGCGAUAGCGCCAACGUCCUCAACCACCAAUGCAUCCCACCACAUGAUGAUGCCUGAAGAGCAUUGGUUUUUUG	-1.53
GAUCAAUCUGCCCUCAGAGCUCGAGAACAUCUUCGGAUGCAGAGGAGGCAGGCUUCGGUGGCGCGAUAGCGCGAACGUCCUCGACCUCCAAUGCAUCCCACCACAUGAUGAUGCCUGAAGAGCCUUGGUUUUUUG	-2.1
GAUCAAUCUGCCCUCAGAGCUCGAGAACAUCUUCGGAUGCAGAGGAGGCAGGCUUCGGUGGCCCGAUAGCGCCAACGCCCUCAACCUCCAAUGCAUCCCACCACAUGAUGAUGCCUGAAGAGCCUUGGUUUUUUG	-3.19
GAUCAAUCUGCCCUCAGAGCUCGAGAACAUCUUCGGAUGCAGAGGAGGCAGGCUUCGGUGGCGCGAUAGCGCCAACGUCCUCAACCUCCAAUCCAUCCCACCACAUGAUGAUGCCUGAAGAGCCUUGGUUUUUUG	-1.09
GAUCAAUCUGCCCUCAGAGCUCGAGAACAUCUUCGGAUGCAGACGAGGCAGGCUUCGGUAGCGCGAUAGCGCCAACGUCCUCAACCUCCAAUGCAUCCCACCACAUGAUGAUGCCUGAAGAGCCUUGGUUUUUUG	-0.897
GAUCAAUCUGCCCUCAGAGCUCGAGAACAUCUUCGGAUCCAGAGGAGGCAGGCUUCGGUGGCGCGAUAGCGCCAACGUCCUCAACCUCCAAUGCAUCCCACCACAUGAUGAUGCCUUAAGAGCCUUGGUUUUGUG	-4.12
GAUCAAUCUGCCCUCAGAGCUCGAGAACAUCUGCGGAUGCAGAGGAGGCAGGUAUCGGUGGCGCGAUAGCGCUAACGUCCUCAACCACCAAUGCAUCCCACCACAUGAUGAUGCCUGAAGAGCAUUGGUUUUUUG	-4.16
GAUCAAUCUGCCCUCAGAGCUCGAGAACAUCUUCGGAUGCAGAGGAGGCAGGCUUCGGUGGCGCGAUAGCGCCAACGUCCUCAACCUCCAAUGCAUCCCACCACAUGAUGAUGCCUAAAGAGCCUUGGUUUUUUG	-1.5
GAUCAAUCUGCCCUCAGAGCUCGAGAACAUCUUCGGAUGCAGAGGAGGCAGGCUUCGGUGGCGCGAUAGCGCCAACGUCCUCAACCUCCAAUGCAUCCCACCACAUGAUGAUGCCUUAAGAGCCUUGGUUUUUUG	-2.69
GAUCAAUCUGCCCUCAGAGCUCGAGAACAUCUUCGGAUGCAGAGGAGCCAGGCUUCGGUGGCGCGAUAGCGCCAAAGUACUCAACCUCCAAUGCAUCCCAGCACAUGAUGAUGCCUGAAGAGCCUUGGUUUUUUG	-4.45
GAUCAACCUGCCCUCAGCGCUCGAGAACAUCUUCGGAUGCAGAGGAGGCAGACUUCGGUGGCGCGAUAGCGUCAACGUCCUCAACCUCCAAUGAAUCCCACCACAUGAUGAUGCCUGAAGAGCCUUGGUUUUUUG	-4.4
GAUCAAUCUGCCCUCAGAGCUCGAGAACAUCUUCGAAUGCAGAGGAGGCCGGCUUCGGUGGCGCGAUAGCGCCAACGUCCUCAACCUCCAAUGCAUCCCACCACAUGAUGAUGCCUGAAUAGCCUUGGUUUUUUG	-1.14
GAUCAAUCUGCCCUCAGAGCUCGAGAACAUCUUCGGAUGCAGAGGAGGCAGGCUUCGGUGUCGCGAUAGCGCCAACGUCCUCAAUCUCCAAUGCAUCCCAACACAUGAUGAUGCCUGAAGAGCCUUGGUUUUUUG	-2.34
GAUCAAUCUGCCCUCAGAGCUCGAGAACAUCUUCGGAUGCAGAGGAGGCAGGCUUCGGUGGCGCGAUAGCGCUAACGUCCUCAACCUCCAAUGCAUCCCCCCACAUGAUGAUGCCUGAAGAGCCUUGGUUUUUUG	-1.36
GAUCAAUCUGCCCUCAGAGCUCGAGAACAUCUUCGGAUGCAGAGGAGGCAGGCUUCGGUGGCGCGAUAGCGUCAACGUCCUCAACCUCCAAUGCAUCCCACCACAUGAUGAUGCCUGAAGAGCCUUGGUUUUUUG	-0.173
GAUCAAACUGCCCUCAGAGCUCGAGAACAUCUUCGGAUGCAGAGGAGGCAGGCCUCGGUGGCGCGAUAGCGCCAACGUCCUCAACCUCCAAUGCGUCCCACCACAUGAUGAAGCCUGAAGAGCCUUGGUUUUUUG	0.973
GAUCAAUCUGCCCUCAGAGCUCGAGAACAUCUUCGGAUGCAGAGGAGGCAGGCUUCGGUGGCGCGAUAGCGCCAACGUCCUCAACGUCCAAUGCAUCCCACCACAUGAUCAUGCCUGAAGAGCAUUGGUUUUUUG	-5.57
GAUCAAUCUACCCUCAGAGCUCGAGAACAUCUUCGGAUGCAGAGUAGGCAGGCUUCGGUGGCGCGAUAGCGCCCACGUCCACAACCUCCAAUGCAUCCCACCACAUGAUGAUGCCUGAAGAGCCUUGGUUUUUUG	-2.98
GAUCAAUCUGCCCUCAGAGCUCGAGAACAUCUUCGGAUGCAGAGGAGGCAGGCUUCGGUGGCGCGAUAGCGUCAACGUCCUCAACCUCCAAUGCAUCCCACCACACGAUGAUGCCUGAAGAGCCUUGGUUUUUUG	-1.21
GAUCAAUCUGCCCUCAGAGCUCAAGAACAUCUUCGGAUUCAGAGGAGCCAGGCUUCGGUGGCGCGAUGGCGCCAACGUCCUCAACCUCCAAUGCAUCCUACCACAUGAUGAUGACUGAAGAGCCUUGGUUUUUUG	-5.71
